The results in this text go back to US20230192860A1 (Bristol-Myers Squibb, published 2023).

By Kd is commonly meant the equilibrium constant for the complex coming apart. High values mean weaker binding, low ones tighter binding. For orientation: koff means the rate constant with which the complex falls apart. A lower koff goes with slow dissociation. One may read the kon as the second-order rate constant of association. High values mean fast association, low ones slow association.

Experiment [1] addresses T1, hVISTA-ECD 6-His tag (human, UniProt Q9H7M9 33-193).
T1 construct: also called monovalent hVISTA-ECD; human VISTA
Description: SPR, Ab on Protein A, hVISTA analyte, pH 6.9. On the procedure:
(§1) Further binding kinetic experiments were performed at various pHs on VISTA antibodies described herein by SPR as generally described in Example 9 above. Antibodies were normalized to 50 nM concentration in PBST pH 7.4 and captured on a Protein A CM5 chip (ID 4931) by injecting for 45 seconds at a 5 µL/min flow rate. An 8-point human VISTA titration ([…]) was prepared in PBST at pH 7.4, 6.9, 6.45, and 6.0. Titrations were injected over the captured antibodies for 180 seconds at 30 µL/min. Sensorgrams were fit to a 1:1 binding model in T200 evaluation software and the kinetic constants were reported.
(§2) Each table reports the data at one of the four tested pHs (7.4, 6.9, 6.45, and 6.0, respectively). The 8-point hVISTA titration used in these assays was chosen to provide increased confidence in kinetic values reported at neutral pH conditions. A relatively stringent cutoff for non-binding was applied in this assay. Certain progeny of P1-061029 antibody (P1-068757, ‘759, ‘765, ‘771, and ‘775) show no binding to hVISTA at micromolar concentrations at pH 7.4, while ‘761 and ‘767 show no binding to hVISTA at 100 nM at pH 7.4 but do show binding to hVISTA at micromolar concentrations.
On the technique in general: SPR reads the build-up and loss of mass on a sensor chip optically.

Experiment [2] deals with T1, hVISTA-ECD 6-His tag. Description: SPR, Ab on Protein A, hVISTA analyte, pH 6.0.
In experiment [3] the target is T1, hVISTA-ECD 6-His tag. Description: SPR, Ab on Protein A, hVISTA analyte, pH 6.45.
Experiment [4] concerns the target T1, hVISTA-ECD 6-His tag. Put plainly: SPR; KD at pH 6.9 over KD at pH 6.0 (head prints 7.4). The protocol:
as §1, §2

For experiment [5], the target named is T1, hVISTA-ECD 6-His tag. Put plainly: SPR; kd at pH 6.9 over kd at pH 6.0 (head prints 7.4). The protocol: as §1, §2
Experiment [6] concerns the target T1, hVISTA-ECD 6-His tag. Description: SPR; KD at pH 6.45 over KD at pH 6.0 (head prints 7.4).
Experiment [7] deals with T1, hVISTA-ECD 6-His tag. Description: SPR; kd at pH 6.45 over kd at pH 6.0 (head prints 7.4). On the procedure: as §1, §2

T1 sequence (Q9H7M9 other isoform, or with tags, fused parts or gaps limits assumed): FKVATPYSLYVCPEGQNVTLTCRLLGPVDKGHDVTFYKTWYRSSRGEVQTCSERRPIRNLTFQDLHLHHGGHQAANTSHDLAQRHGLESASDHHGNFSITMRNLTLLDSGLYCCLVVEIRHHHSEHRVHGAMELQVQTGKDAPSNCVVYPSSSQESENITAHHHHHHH

B1: P1-070872 (P1-068761_H100G) (antibody, human IgG1, kappa, V domains shown)
VH: EVQLVESGGGLVQPGKSLRLSCAASGFTLEDEAMHWVRQAPGKGLEWVSGINWNSEEIGYADSVKGRFTISRDNAKNSLYLQMNSLRTEDTALYYCAKVPGYSGGWIDAEDVWGQGTMVTVSS
VL: not shown
notes: also called P1-070872-4
Take B1: the equilibrium dissociation constant (Kd) in experiment [1] turned out to be 15000 nM; in experiment [2] it was 8.2 nM; in experiment [3] it was 68 nM. Also, the koff in experiment [1] came out at 0.028 s⁻¹; in experiment [2] it was 0.0056 s⁻¹; in experiment [3], 0.025 s⁻¹. Besides, the figures for the on-rate constant (kon) in experiment [1], in experiment [2] and in experiment [3] were 1900 M⁻¹ s⁻¹, 680000 M⁻¹ s⁻¹ and 360000 M⁻¹ s⁻¹, respectively. In addition, the entries for the “7.4 KD/ 6.0 KD” value in experiment [4] and in experiment [6] were 1820 and 8.3, respectively. Further, the figures for the “7.4 kd/ 6.0 kd” value in experiment [5] and in experiment [7] were 5.1 and 4.5, respectively.

B2: P1-070890 (P1-068761_E30D_E55A) (antibody, human IgG1, kappa, V domains shown)
VH: EVQLVESGGGLVQPGKSLRLSCAASGFTLDDEAMHWVRQAPGKGLEWVSGINWNSAEIGYADSVKGRFTISRDNAKNSLYLQMNSLRTEDTALYYCAKVPGYSHGWIDAEDVWGQGTMVTVSS
VL: not shown
notes: also called P1-070890-3
For the molecule B2, the equilibrium dissociation constant (Kd) in experiment [1] stood at 4400 nM; in experiment [2] it was 21 nM; in experiment [3] it was 130 nM. For the same molecule, the koff in experiment [1] was found to be 0.04 s⁻¹; in experiment [2] it was 0.0081 s⁻¹; in experiment [3], 0.032 s⁻¹. In addition, the association rate constant (kon) worked out at 9000 M⁻¹ s⁻¹ in experiment [1], 390000 M⁻¹ s⁻¹ in experiment [2] and 240000 M⁻¹ s⁻¹ in experiment [3]. In addition, the “7.4 KD/ 6.0 KD” value amounted to 211 in experiment [4] and 6.3 in experiment [6]. In addition, the “7.4 kd/ 6.0 kd” value was 4.9 in experiment [5] and 3.9 in experiment [7].

B3: P1-070900 (P1-068761_E56N_H100G) (antibody, human IgG1, kappa, V domains shown)
VH: EVQLVESGGGLVQPGKSLRLSCAASGFTLEDEAMHWVRQAPGKGLEWVSGINWNSENIGYADSVKGRFTISRDNAKNSLYLQMNSLRTEDTALYYCAKVPGYSGGWIDAEDVWGQGTMVTVSS
VL: not shown
notes: also called P1-070900-3
In the case of B3, the figures for the dissociation constant (Kd) in experiment [1], in experiment [2] and in experiment [3] were 3700 nM, 17 nM and 130 nM, respectively. Further, the results for the koff in experiment [1], in experiment [2] and in experiment [3] were 0.031 s⁻¹, 0.0084 s⁻¹ and 0.06 s⁻¹, respectively. In addition, the on-rate constant (kon) in experiment [1] came out at 8500 M⁻¹ s⁻¹; in experiment [2] it was 500000 M⁻¹ s⁻¹; in experiment [3] it was 450000 M⁻¹ s⁻¹. The “7.4 KD/ 6.0 KD” value was 222 in experiment [4] and 8 in experiment [6]. Further, the “7.4 kd/ 6.0 kd” value in experiment [5] came out at 3.7; in experiment [7], 7.1.

B4: P1-070904 (P1-068767_E30D) (antibody, human IgG1, kappa, V domains shown)
VH: EVQLVESGGGLVQPGKSLRLSCAASGFTLDDYAMHWVRQAPGKGLEWVSGIDWNSENIGYADSVKGRFTISRDNAKNSLYLQMNSLRTEDTALYYCAKVPGYSGGWIDAEDDWGQGTMVTVSS
VL: not shown
notes: also called P1-070904-3
On to B4, for which the Kd in experiment [1] is 250 nM; in experiment [2], 17 nM; in experiment [3] it was 68 nM. Besides, the results for the off-rate (koff) in experiment [1], in experiment [2] and in experiment [3] were 0.028 s⁻¹, 0.0038 s⁻¹ and 0.0086 s⁻¹, respectively. Moreover, the results for the kon in experiment [1], in experiment [2] and in experiment [3] were 110000 M⁻¹ s⁻¹, 230000 M⁻¹ s⁻¹ and 130000 M⁻¹ s⁻¹, respectively. The “7.4 KD/ 6.0 KD” value is 14.9 in experiment [4] and 4.1 in experiment [6]. For the same molecule, the “7.4 kd/ 6.0 kd” value in experiment [5] stood at 7.2; in experiment [7] it was 2.3.

B5: P1-070908 (P1-068767_E55A) (antibody, human IgG1, kappa, V domains shown)
VH: EVQLVESGGGLVQPGKSLRLSCAASGFTLEDYAMHWVRQAPGKGLEWVSGIDWNSANIGYADSVKGRFTISRDNAKNSLYLQMNSLRTEDTALYYCAKVPGYSGGWIDAEDDWGQGTMVTVSS
VL: not shown
notes: also called P1-070908-6
B5: the dissociation constant Kd in experiment [1] was 240 nM; in experiment [2], 10 nM; in experiment [3], 54 nM. The koff in experiment [1] came out at 0.012 s⁻¹; in experiment [2] it was 0.0028 s⁻¹; in experiment [3], 0.006 s⁻¹. For the same molecule, the on-rate (kon) was 51000 M⁻¹ s⁻¹ in experiment [1], 270000 M⁻¹ s⁻¹ in experiment [2] and 110000 M⁻¹ s⁻¹ in experiment [3]. The results for the “7.4 KD/ 6.0 KD” value in experiment [4] and in experiment [6] were 23 and 5.2, respectively. Besides, the “7.4 kd/ 6.0 kd” value in experiment [5] amounted to 4.4; in experiment [7] it was 2.2.
